B1: Peroxisome proliferator-activated receptor delta, residues 71 to 145; numbered along this chain, Q03181 (parent)
chain: NMECRVCGDKASGFHYGVHACEGCKGFFRRTIRMKLEYEKCERSCKIQKKNRNKCQYCRFQKCLALGMSHNAIRF

Variants of: B1
Assay: abundance fitness (aPCA) (normalised: wild type 0, dead -1); higher = more abundant; growth selection in yeast, the domain comes from the species named
Details: Homo sapiens

Abundance fitness, by site and new letter:
C55: Y -0.676; A -0.806; R -0.868; M -0.827; W -0.858; S -0.823; V -1.03; H -0.441; G -0.807; E -1.03; I -0.67; K -0.646; T -0.393; P -0.864; D -1.39; L -0.98; F -0.824
Q56: A 0.074; Y -0.116; R -0.227; I -0.599; L -0.031; T -0.321; C 0.005; E 0.077; W -0.341; F -0.079; K -0.214; S 0.008; M -0.066; D 0.189; G 0.002; N -0.145; P -0.025
Y57: W -0.125; V -0.675; A -0.355; H -0.177; S -0.35; F -0.186; L -0.765; T -0.77; C -0.305; E -0.601; K -0.507; R -0.671; Q -0.862; G -0.746; N -0.946; P -0.961; I -0.919; D -0.335; M -0.867
N53: A -0.086; F -0.083; G -0.033; K -0.104; M -0.067; T -0.112; H -0.152; Y -0.249; W -0.127; Q -0.152; C -0.274; R -0.185; D -0.08; L -0.217; P -0.468; E 0.123; S -0.005; I -0.051
F60: I -0.399; M -0.073; L -0.027; W -0.003; S -0.557; C -0.84; K -0.742; Y -0.223; R -0.798; A -0.941; E -1.03; Q -1.04; D -0.633; P -0.802; H -0.528; V -0.622; T -0.549
R52: Y 0.012; V 0.07; T -0.012; W -0.286
Q61: G -0.639; C -0.615; I -0.254; D -0.751; M -0.061; Y -0.227; F -0.909; H -0.248; V -0.243; S -0.248; N -0.359; L -0.439; E -0.037; W -0.699; T -0.304; A -0.069; R -0.296; P -0.666; K -0.098
K54: E 0.122; H -0.059; W -0.036; F 0.065; I -0.031; A 0.009; Y 0.17; V -0.037; P -0.037; D -0.02; T -0.017; L -0.046; S -0.079; M 0.052; Q -0.012
K62: A -0.056; G -0.661; F -0.418; D -0.671; C -0.543; E -0.447
C58: E -0.925; G -0.822; Y -0.432; M -0.63; I -0.82; W -0.723; Q -0.848; R -0.771; P -1.04; T -0.957; L -0.769; D -0.719; K -0.825; V -0.944; N -1.09; F -1; A -0.688
R59: G -0.867; I -0.837; M -0.023; H -0.005; Y 0.107; N -0.704; P -0.903; E -0.933; K -0.199; W 0.204; F -0.042; L 0.098; S -0.928; C -0.442; T -0.218; V -0.472; A -0.459; D -0.361
